Tests used:
[1] = biological target: T1, recombinant human α5β1 integrin (human, UniProt P08648 42-1049; P05556 21-728); experiment: SPR; Biacore T200; LNA043 (~3,000 RU), FN1 or VTN (~500 RU) amine-coupled to CM5; integrins as analytes 0.6–10 μM, single-cycle kinetics, 37 °C, 1× HBS-N, 0.005% Tween 20, 1 mM MgCl2, 1 mM CaCl2, 2 mM MnCl2; 1:1 binding fit; details: both partners purified
T1 construct: integrin α5 subunit, human, recombinant; integrin β1 subunit, human, recombinant; also called rhα5β1; integrin α5β1; source: bought: R&D Systems (co-IP)

[2] = biological target: T2, recombinant human αvβ3 integrin (human, UniProt P06756 31-1048; P05106 27-718); experiment: as above; details: both partners purified
T2 construct: integrin αv subunit, human, recombinant; integrin β3 subunit, human, recombinant; also called rhαvβ3; integrin αvβ3; source: bought: R&D Systems (co-IP)
T2 sequence (P06756 31-1048, chain 1 of 2): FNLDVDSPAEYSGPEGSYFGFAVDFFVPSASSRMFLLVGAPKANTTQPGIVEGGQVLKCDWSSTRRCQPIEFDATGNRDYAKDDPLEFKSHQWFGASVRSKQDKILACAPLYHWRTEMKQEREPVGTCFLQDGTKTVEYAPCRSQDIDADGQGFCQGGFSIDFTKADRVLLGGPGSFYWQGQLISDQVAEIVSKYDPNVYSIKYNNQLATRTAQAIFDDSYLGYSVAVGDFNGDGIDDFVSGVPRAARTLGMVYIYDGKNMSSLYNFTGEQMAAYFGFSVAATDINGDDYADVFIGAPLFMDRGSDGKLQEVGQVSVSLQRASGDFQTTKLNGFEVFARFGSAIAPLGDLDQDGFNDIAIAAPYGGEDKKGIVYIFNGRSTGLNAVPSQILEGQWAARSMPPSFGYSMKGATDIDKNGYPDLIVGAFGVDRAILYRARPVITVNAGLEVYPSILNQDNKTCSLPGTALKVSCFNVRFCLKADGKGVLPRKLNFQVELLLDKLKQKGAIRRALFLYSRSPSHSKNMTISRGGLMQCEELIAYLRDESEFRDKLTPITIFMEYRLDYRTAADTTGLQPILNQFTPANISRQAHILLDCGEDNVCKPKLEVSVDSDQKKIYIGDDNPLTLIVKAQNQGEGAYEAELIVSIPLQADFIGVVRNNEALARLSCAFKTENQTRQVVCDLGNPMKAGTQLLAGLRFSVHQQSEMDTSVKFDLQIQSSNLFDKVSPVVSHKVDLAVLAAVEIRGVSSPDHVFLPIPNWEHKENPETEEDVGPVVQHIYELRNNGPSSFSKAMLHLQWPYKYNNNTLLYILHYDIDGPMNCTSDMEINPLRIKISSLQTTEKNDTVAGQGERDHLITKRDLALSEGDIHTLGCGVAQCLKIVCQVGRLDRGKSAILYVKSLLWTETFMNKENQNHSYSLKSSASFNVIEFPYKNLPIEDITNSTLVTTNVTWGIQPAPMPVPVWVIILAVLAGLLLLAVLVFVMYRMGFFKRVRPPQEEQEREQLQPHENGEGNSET
T2 sequence (P05106 27-718, chain 2 of 2): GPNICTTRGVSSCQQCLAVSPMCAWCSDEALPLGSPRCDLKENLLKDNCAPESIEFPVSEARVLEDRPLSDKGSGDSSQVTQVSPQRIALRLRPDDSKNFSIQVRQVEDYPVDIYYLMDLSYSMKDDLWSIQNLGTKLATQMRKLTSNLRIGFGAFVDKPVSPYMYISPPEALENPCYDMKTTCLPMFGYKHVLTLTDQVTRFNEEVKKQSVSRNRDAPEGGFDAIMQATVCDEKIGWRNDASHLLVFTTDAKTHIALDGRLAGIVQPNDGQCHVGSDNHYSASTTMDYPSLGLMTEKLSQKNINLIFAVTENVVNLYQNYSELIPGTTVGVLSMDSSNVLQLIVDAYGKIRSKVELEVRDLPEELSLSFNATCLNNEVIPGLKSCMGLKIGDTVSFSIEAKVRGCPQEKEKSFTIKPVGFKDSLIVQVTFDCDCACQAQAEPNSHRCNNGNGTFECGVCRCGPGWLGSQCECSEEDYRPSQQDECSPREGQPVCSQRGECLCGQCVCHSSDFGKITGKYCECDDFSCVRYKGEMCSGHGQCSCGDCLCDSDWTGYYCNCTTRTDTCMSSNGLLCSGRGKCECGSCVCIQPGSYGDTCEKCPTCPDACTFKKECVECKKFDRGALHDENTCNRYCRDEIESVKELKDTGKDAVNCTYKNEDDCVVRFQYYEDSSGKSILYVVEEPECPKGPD

B1: LNA043 (domain or fragment)
chain: IPAECTTIYNRGEHTSGMYAIRPSNSQVFHVYCDVISGSPWTLIQHRIDGSQNFNETWENYKYGFGRLDGEFWLGLEKIYSIVKQSNYVLRIELEDWKDNKHYIEYSFYLGNHETNYTLHLVAITGNVPNAIPENKDLVFSTWDHKAKGHFNCPEGYSGGWWWHDECGENNLNGKYNKPRAQSKPERRRGLSWKSQNGRLYSIKSTKMLIHPTDSESFE
Kd [1]: ~1.5 µM
Kd [2]: ~7.9 µM

Source: article PMC9800282 (Nature Medicine, 2022)
